Data on 20 sequences can be found in the supplement of paper PMC9170038.

In the data set the test system is K4 kissing-loop RNA reporter. Nature of the data set: apparent KD of K4 kissing-loop reporter; higher = weaker reporter binding. The following applies: Eterna round: R107. Here is the method:
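RNA-MaP round R107: designed RNA switches with theophylline, tryptophan, arginine or FMN aptamers are transcribed on-chip within common flanks. They are titrated with a labelled K4 kissing-loop RNA reporter in RNA-MaP buffer (100 mM Tris pH 7.5, 80 mM KCl, 4 mM MgCl2), without ligand or with the indicated ligand. Median apparent KD per design.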

[1] abbreviates: input ligand: theophylline 20 uM.
Where [2] appears, read: input ligand: tryptophan 2.4 mM.
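Also: bound reporter read as fluorescence of individual clusters on recovered sequencing chips by microscopy, with normalized cluster intensities fitted with a binding model.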

With “UGAUACCAGACUGAUACCAGCGAGUGAUGUUUGCUGAAAUCAGGGUCAAAGACCCUGUCUCGCCCUUGGCAGCAGUCUGGUAUCU [TheoBX 21 #SwitchBubble #StaticStem]”, the “apparent KD of K4 kissing-loop reporter” value stood at 735 nM (input ligand: FMN 200 uM); 601 nM (input ligand: arginine 13.2 mM); 754 nM (input ligand: none); 223 nM under setting [1]; 688 nM under setting [2].
Taken in the same sequence, the figures for “UGAUACCAGGCGGCCGCCACUCCCGCAGGUCAAAGACCUGCGAAGCUGGUUCUCCAGUGAUGUUGGAGGACCGGGCCUGGUAUCU [FiskerMod 26 - Jieux - Exclusion - Tryptophan B]” were 191 nM, 141 nM, 152 nM, 168 nM and 436 nM.
On the same counts, the results for “UGAUACCAGGCGGCCGCCACUCCUACAGGUCAAAGACCUGUAAAACUGGUUUUUUAGUGAUGUUGGAGGACCGGGCCUGGUAUCU [FiskerMod 28 - Jieux - Exclusion - Tryptophan B]” are 181 nM, 108 nM, 178 nM, 183 nM and 177 nM.
Taken in the same sequence, the figures for “UGAUACCAGGCGGCCGCCACUCCUACAGGUCAAAGACCUGUAGAACUGGUUUUUUAGUGAUGUUGGAGGACCGGGCCUGGUAUCU [FiskerMod 30 - Jieux - Exclusion - Tryptophan B]” were 698 nM, 217 nM, 394 nM, 296 nM and 321 nM.
Take “UGAUAGGACAGAAGGAGCGGAAGUGAUGUUUCCAAAUGGAUAAGGUGUCAAAAGACACCCUUCCAGGUAGGUCGCUGUCCUAUCU [ArgBX 14 #Palindromic #SwitchBubble #StaticStem]”: the “apparent KD of K4 kissing-loop reporter” value is, setting by setting: (input ligand: FMN 200 uM) 111 nM; (input ligand: arginine 13.2 mM) 112 nM; (input ligand: none) 130 nM; under setting [1], 102 nM; under setting [2], 101 nM.
Take “UGAUAGGACAGAAGGAGCGGAGGUCGUCAAAGACGACCAAUACGUUAAAUAGGAGUGAUGUUCCAGGUAGGUCGCUGUCCUAUCU [ArgBX 30 #SwitchBubble #StaticStem]”: the “apparent KD of K4 kissing-loop reporter” value (input ligand: FMN 200 uM) is 123 nM; the “apparent KD of K4 kissing-loop reporter” value (input ligand: arginine 13.2 mM) stood at 119 nM; the “apparent KD of K4 kissing-loop reporter” value (input ligand: none) is 123 nM; the “apparent KD of K4 kissing-loop reporter” value under setting [1] was found to be 129 nM; the “apparent KD of K4 kissing-loop reporter” value under setting [2] turned out to be 106 nM.
“UGAUUGCCAGUGAUGUUGGCAGUUUCUGAAGGAGCGCGUGAAAACGCAGGUAGGUCGCAGAUUAGUGCCAAUUGAUCGAAAGAUC [KL-XArg-A4]”: the “apparent KD of K4 kissing-loop reporter” value (input ligand: FMN 200 uM) was 208 nM; the “apparent KD of K4 kissing-loop reporter” value (input ligand: arginine 13.2 mM) is 227 nM; the “apparent KD of K4 kissing-loop reporter” value (input ligand: none) stood at 214 nM; the “apparent KD of K4 kissing-loop reporter” value under setting [1] turned out to be 193 nM; the “apparent KD of K4 kissing-loop reporter” value under setting [2] stood at 205 nM.
Taken in the same sequence, the figures for “UGCAUGCUUGGAGUGAUGUUCCAAGAUGAUACCAGUGCUUUUUUGCACCCUUGGCAGCGUCUGAUUGCAUGCACGUCGAAAGACG” were 531 nM, 471 nM, 529 nM, 490 nM and 517 nM.
Regarding “UGGAGUGCCUGGUCGUCACUAUGCCAACCACGAGGACCGGUACGGCCGCCACUCGUGAGGGAUAUUCAGAAAGUGAUGUUUUUUG [theeternabot_exclusion_KL_Trp_A_1]”, the “apparent KD of K4 kissing-loop reporter” value by setting is: (input ligand: FMN 200 uM) 590 nM; (input ligand: arginine 13.2 mM) 370 nM; (input ligand: none) 529 nM; under setting [1], 450 nM; under setting [2], 403 nM.
For the sequence “UGGAGUUGACGAAAAGUCAACUCCUGAGAUACCAGUGACGAAAGUCACCCUUGGCAGCUCACUCCCAGUGAUGUUGGUUCAUAAG [#04 K4 Theophylline A Same State]”, the “apparent KD of K4 kissing-loop reporter” value was 328 nM (input ligand: FMN 200 uM); 370 nM (input ligand: arginine 13.2 mM); 601 nM (input ligand: none); 496 nM under setting [1]; 356 nM under setting [2].
On the same counts, the results for “UGGAGUUGACGAAAAGUCAACUCCUGAGAUACCAGUGACGAAAGUCACCCUUGGCAGCUCACUGCCAGUGAUGUUGGAACUAAAG [#02 K4 Theophylline A Same State]” are 308 nM, 158 nM, 256 nM, 452 nM and 216 nM.
Taken in the same sequence, the figures for “UGGAGUUGACGAAAAGUCAACUCCUGAGAUACCAGUGACGAAAGUCACCCUUGGCAGCUCACUGGCAGUGAUGUUGCAAAAUAAA [KL-SSTheo-A4]” were 135 nM, 52.2 nM, 60 nM, 84.7 nM and 123 nM.
Regarding “UGGAGUUGACGAAAAGUCAACUCCUGAGAUACCAGUGACGAAAGUCACCCUUGGCAGCUCACUGGCAGUGAUGUUGCACGAUAAA [KL-SSTheo-A1]”, the “apparent KD of K4 kissing-loop reporter” value is, setting by setting: (input ligand: FMN 200 uM) 123 nM; (input ligand: arginine 13.2 mM) 66.1 nM; (input ligand: none) 80 nM; under setting [1], 181 nM; under setting [2], 101 nM.
On the same counts, the results for “UGGGAUGUUAAAGGAUAUAGCAAGUGAUAUAAGAAAGUGAGUGAUGUUUAUGUAGGUGAUGAUAUGUUAGAAGGUUAACAAAACG [abcdefgh]” are 296 nM, 158 nM, 211 nM, 185 nM and 218 nM.
On the same counts, the results for “UGGUGCCAUUGGCGGGUAGAUAGUGGUGGCAAGGAUAUGUGAGCGAACAGAAGGUGCAUCAAGUUCAGUGAUGUUGGGCUCGAUU [theeternabot_sameState_KL_FMN_A_20]” are 264 nM, 184 nM, 275 nM, 254 nM and 234 nM.
Taken in the same sequence, the figures for “UGGUUAAGCAGUGAUGUUGCAAGUAAUGAUACCAGUUAAGAAGAGAACCCUUGGCAGCAUAAAGUGCGCUCUGAUGAGUGUGCUU [whbob_SS_Theo_A_w54]” were 197 nM, 218 nM, 240 nM, 239 nM and 179 nM.
For “UGGUUUGGAAGUGAUGUUUCUAUAAGUGAUACCAGACAAAAGAAAGUCCCUUGGCAGCACAAUGAUGCCAAGGAAACGGCAUGAU [#15 K4 Theophylline A Same State]”, the “apparent KD of K4 kissing-loop reporter” value was 179 nM (input ligand: FMN 200 uM); 164 nM (input ligand: arginine 13.2 mM); 174 nM (input ligand: none); 157 nM under setting [1]; 150 nM under setting [2].
Take “UGUAAGCGCGUAGAUACCAGCAAACGAGUGAUGUUCAAAAGAUUAAGGAAAAGAAAGUAAUGCCCUUGGCAGCUAAUCAUAAGCG [whbob_Ex_Theo_B_sa91]”: the “apparent KD of K4 kissing-loop reporter” value was 304 nM (input ligand: FMN 200 uM); 316 nM (input ligand: arginine 13.2 mM); 449 nM (input ligand: none); 397 nM under setting [1]; 247 nM under setting [2].
With “UGUAAGCGCGUAGAUACCAGCAGACGAGUGAUGUUCAAGAGAUUAAGGAAAAGAAAGUAAUGCCCUUGGCAGCUAAUCAUAAGCG [whbob_Ex_Theo_B_sa93]”, the “apparent KD of K4 kissing-loop reporter” value (input ligand: FMN 200 uM) worked out at 384 nM; the “apparent KD of K4 kissing-loop reporter” value (input ligand: arginine 13.2 mM) amounted to 312 nM; the “apparent KD of K4 kissing-loop reporter” value (input ligand: none) is 446 nM; the “apparent KD of K4 kissing-loop reporter” value under setting [1] came to 331 nM; the “apparent KD of K4 kissing-loop reporter” value under setting [2] was found to be 363 nM.
On to “UGUACCGAGUUAGGAUAUGUCGUCGAAAGACGAAAUGGAGUGAUGUUCCUUAAACUGCGAAAGCAGACAGAAGGGAUUUGGUACU [FmnBS 29 U11+U77]”, for which the “apparent KD of K4 kissing-loop reporter” value runs as follows: (input ligand: FMN 200 uM) 331 nM; (input ligand: arginine 13.2 mM) 442 nM; (input ligand: none) 412 nM; under setting [1], 510 nM; under setting [2], 378 nM.
